Here are results for 20 molecules from US20240018502A1.

B1: MTSP-1 Q38E/H40R/I41H/F97D/F99L/C122S/Q192G (enzyme)
chain: VVGGTDADEGEWPWQVSLHALGEGRHCGASLISPNWLVSAAHCYIDDRGFRYSDPTQWTAFLGLHDQSQRSAPGVQERRLKRIISHPFFNDDTLDYDIALLELEKPAEYSSMVRPISLPDASHVFPAGKAIWVTGWGHTQYGGTGALILQKGEIRVINQTTCENLLPQQITPRMMCVGFLSGGVDSCGGDSGGPLSSVEADGRIFQAGVVSWGDGCAQRNKPGVYTRLPLFRDWIKENTGV
B2: MTSP-1 Q38G/H40R/I41H/D60bK/F97D/F99L/C122S/Q175L/Q192G (enzyme)
chain: VVGGTDADEGEWPWQVSLHALGGGRHCGASLISPNWLVSAAHCYIDKRGFRYSDPTQWTAFLGLHDQSQRSAPGVQERRLKRIISHPFFNDDTLDYDIALLELEKPAEYSSMVRPISLPDASHVFPAGKAIWVTGWGHTQYGGTGALILQKGEIRVINQTTCENLLPQLITPRMMCVGFLSGGVDSCGGDSGGPLSSVEADGRIFQAGVVSWGDGCAQRNKPGVYTRLPLFRDWIKENTGV
B3: MTSP-1 Q38E/H40R/I41H/D60bN/F60eT/F97D/F99L/C122S/Q175L/Q192G (enzyme)
chain: VVGGTDADEGEWPWQVSLHALGEGRHCGASLISPNWLVSAAHCYIDNRGTRYSDPTQWTAFLGLHDQSQRSAPGVQERRLKRIISHPFFNDDTLDYDIALLELEKPAEYSSMVRPISLPDASHVFPAGKAIWVTGWGHTQYGGTGALILQKGEIRVINQTTCENLLPQLITPRMMCVGFLSGGVDSCGGDSGGPLSSVEADGRIFQAGVVSWGDGCAQRNKPGVYTRLPLFRDWIKENTGV
B4: MTSP-1 Q38E/H40R/I41H/D60bE/F97D/F99L/C122S/Q192G (enzyme)
chain: VVGGTDADEGEWPWQVSLHALGEGRHCGASLISPNWLVSAAHCYIDERGFRYSDPTQWTAFLGLHDQSQRSAPGVQERRLKRIISHPFFNDDTLDYDIALLELEKPAEYSSMVRPISLPDASHVFPAGKAIWVTGWGHTQYGGTGALILQKGEIRVINQTTCENLLPQQITPRMMCVGFLSGGVDSCGGDSGGPLSSVEADGRIFQAGVVSWGDGCAQRNKPGVYTRLPLFRDWIKENTGV
B5: MTSP-1 Q38G/H40R/I41H/D60bN/F97D/F99L/C122S/Q175L/Q192G (enzyme)
chain: VVGGTDADEGEWPWQVSLHALGGGRHCGASLISPNWLVSAAHCYIDNRGFRYSDPTQWTAFLGLHDQSQRSAPGVQERRLKRIISHPFFNDDTLDYDIALLELEKPAEYSSMVRPISLPDASHVFPAGKAIWVTGWGHTQYGGTGALILQKGEIRVINQTTCENLLPQLITPRMMCVGFLSGGVDSCGGDSGGPLSSVEADGRIFQAGVVSWGDGCAQRNKPGVYTRLPLFRDWIKENTGV
B6: MTSP-1 H40R/I41H/F97D/F99L/Q175R/Q192G/D217E/K224R (enzyme)
chain: VVGGTDADEGEWPWQVSLHALGQGRHCGASLISPNWLVSAAHCYIDDRGFRYSDPTQWTAFLGLHDQSQRSAPGVQERRLKRIISHPFFNDDTLDYDIALLELEKPAEYSSMVRPICLPDASHVFPAGKAIWVTGWGHTQYGGTGALILQKGEIRVINQTTCENLLPQRITPRMMCVGFLSGGVDSCGGDSGGPLSSVEADGRIFQAGVVSWGEGCAQRNRPGVYTRLPLFRDWIKENTGV
B7: MTSP-1 Q38E/H40R/I41H/D60bN/F97D/F99L/C122S/Q192G (enzyme)
chain: VVGGTDADEGEWPWQVSLHALGEGRHCGASLISPNWLVSAAHCYIDNRGFRYSDPTQWTAFLGLHDQSQRSAPGVQERRLKRIISHPFFNDDTLDYDIALLELEKPAEYSSMVRPISLPDASHVFPAGKAIWVTGWGHTQYGGTGALILQKGEIRVINQTTCENLLPQQITPRMMCVGFLSGGVDSCGGDSGGPLSSVEADGRIFQAGVVSWGDGCAQRNKPGVYTRLPLFRDWIKENTGV
B8: MTSP-1 Q38E/H40R/I41H/D60bK/F97D/F99L/C122S/Q175L/Q192G (enzyme)
chain: VVGGTDADEGEWPWQVSLHALGEGRHCGASLISPNWLVSAAHCYIDKRGFRYSDPTQWTAFLGLHDQSQRSAPGVQERRLKRIISHPFFNDDTLDYDIALLELEKPAEYSSMVRPISLPDASHVFPAGKAIWVTGWGHTQYGGTGALILQKGEIRVINQTTCENLLPQLITPRMMCVGFLSGGVDSCGGDSGGPLSSVEADGRIFQAGVVSWGDGCAQRNKPGVYTRLPLFRDWIKENTGV
B9: MTSP-1 I41D/ins97aE/F97T/T98G/F99L/C122S/Q175L/Q192E (enzyme)
chain: VVGGTDADEGEWPWQVSLHALGQGHDCGASLISPNWLVSAAHCYIDDRGFRYSDPTQWTAFLGLHDQSQRSAPGVQERRLKRIISHPFFNDTEGLDYDIALLELEKPAEYSSMVRPISLPDASHVFPAGKAIWVTGWGHTQYGGTGALILQKGEIRVINQTTCENLLPQLITPRMMCVGFLSGGVDSCEGDSGGPLSSVEADGRIFQAGVVSWGDGCAQRNKPGVYTRLPLFRDWIKENTGV
B10: MTSP-1 H40R/I41H/F97D/ins97aV/T98P/F99L/C122S/Q175R/Q192G/D217E/K224R (enzyme)
chain: VVGGTDADEGEWPWQVSLHALGQGRHCGASLISPNWLVSAAHCYIDDRGFRYSDPTQWTAFLGLHDQSQRSAPGVQERRLKRIISHPFFNDDVPLDYDIALLELEKPAEYSSMVRPISLPDASHVFPAGKAIWVTGWGHTQYGGTGALILQKGEIRVINQTTCENLLPQRITPRMMCVGFLSGGVDSCGGDSGGPLSSVEADGRIFQAGVVSWGEGCAQRNRPGVYTRLPLFRDWIKENTGV
B11: MTSP-1 Q38E/I41S/D60bH/F60eI/F97T/ins97aE/T98G/F99L/C122S/Q175L/Q192V (enzyme)
chain: VVGGTDADEGEWPWQVSLHALGEGHSCGASLISPNWLVSAAHCYIDHRGIRYSDPTQWTAFLGLHDQSQRSAPGVQERRLKRIISHPFFNDTEGLDYDIALLELEKPAEYSSMVRPISLPDASHVFPAGKAIWVTGWGHTQYGGTGALILQKGEIRVINQTTCENLLPQLITPRMMCVGFLSGGVDSCVGDSGGPLSSVEADGRIFQAGVVSWGDGCAQRNKPGVYTRLPLFRDWIKENTGV
B12: MTSP-1 I41R/ins97aV/F97D/T98P/F99L/C122S/G151N/Q175L/Q192E (enzyme)
chain: VVGGTDADEGEWPWQVSLHALGQGHRCGASLISPNWLVSAAHCYIDDRGFRYSDPTQWTAFLGLHDQSQRSAPGVQERRLKRIISHPFFNDDVPLDYDIALLELEKPAEYSSMVRPISLPDASHVFPAGKAIWVTGWGHTQYGGTNALILQKGEIRVINQTTCENLLPQLITPRMMCVGFLSGGVDSCEGDSGGPLSSVEADGRIFQAGVVSWGDGCAQRNKPGVYTRLPLFRDWIKENTGV
B13: MTSP-1 I41D/ins97aE/F97T/T98G/F99L/C122S/G151N/Q175L/Q192E (enzyme)
chain: VVGGTDADEGEWPWQVSLHALGQGHDCGASLISPNWLVSAAHCYIDDRGFRYSDPTQWTAFLGLHDQSQRSAPGVQERRLKRIISHPFFNDTEGLDYDIALLELEKPAEYSSMVRPISLPDASHVFPAGKAIWVTGWGHTQYGGTNALILQKGEIRVINQTTCENLLPQLITPRMMCVGFLSGGVDSCEGDSGGPLSSVEADGRIFQAGVVSWGDGCAQRNKPGVYTRLPLFRDWIKENTGV
B14: MTSP-1 ins97aV/F97D/T98P/F99L/C122S/Q175L/Q192E (enzyme)
chain: VVGGTDADEGEWPWQVSLHALGQGHICGASLISPNWLVSAAHCYIDDRGFRYSDPTQWTAFLGLHDQSQRSAPGVQERRLKRIISHPFFNDDVPLDYDIALLELEKPAEYSSMVRPISLPDASHVFPAGKAIWVTGWGHTQYGGTGALILQKGEIRVINQTTCENLLPQLITPRMMCVGFLSGGVDSCEGDSGGPLSSVEADGRIFQAGVVSWGDGCAQRNKPGVYTRLPLFRDWIKENTGV
B15: MTSP-1 Q38R/I41S/D60bH/F60eI/ins97aE/F97T/T98G/F99L/C122S/Q175L/Q192E (enzyme)
chain: VVGGTDADEGEWPWQVSLHALGRGHSCGASLISPNWLVSAAHCYIDHRGIRYSDPTQWTAFLGLHDQSQRSAPGVQERRLKRIISHPFFNDTEGLDYDIALLELEKPAEYSSMVRPISLPDASHVFPAGKAIWVTGWGHTQYGGTGALILQKGEIRVINQTTCENLLPQLITPRMMCVGFLSGGVDSCEGDSGGPLSSVEADGRIFQAGVVSWGDGCAQRNKPGVYTRLPLFRDWIKENTGV
B16: MTSP-1 I41R/ins97aV/F97D/T98P/F99L/C122S/G151N/Q192G (enzyme)
chain: VVGGTDADEGEWPWQVSLHALGQGHRCGASLISPNWLVSAAHCYIDDRGFRYSDPTQWTAFLGLHDQSQRSAPGVQERRLKRIISHPFFNDDVPLDYDIALLELEKPAEYSSMVRPISLPDASHVFPAGKAIWVTGWGHTQYGGTNALILQKGEIRVINQTTCENLLPQQITPRMMCVGFLSGGVDSCGGDSGGPLSSVEADGRIFQAGVVSWGDGCAQRNKPGVYTRLPLFRDWIKENTGV
B17: MTSP-1 I41D/ins97aE/F97T/T98G/F99L/C122S/G151N/Q175L/Q192E/Q209L (enzyme)
chain: VVGGTDADEGEWPWQVSLHALGQGHDCGASLISPNWLVSAAHCYIDDRGFRYSDPTQWTAFLGLHDQSQRSAPGVQERRLKRIISHPFFNDTEGLDYDIALLELEKPAEYSSMVRPISLPDASHVFPAGKAIWVTGWGHTQYGGTNALILQKGEIRVINQTTCENLLPQLITPRMMCVGFLSGGVDSCEGDSGGPLSSVEADGRIFLAGVVSWGDGCAQRNKPGVYTRLPLFRDWIKENTGV
B18: MTSP-1 Q38H/I41S/D60bA/F60eV/Y60gF/F97T/ins97aE/T98G/F99L/C122S/Q175L/Q192T (enzyme)
chain: VVGGTDADEGEWPWQVSLHALGHGHSCGASLISPNWLVSAAHCYIDARGVRFSDPTQWTAFLGLHDQSQRSAPGVQERRLKRIISHPFFNDTEGLDYDIALLELEKPAEYSSMVRPISLPDASHVFPAGKAIWVTGWGHTQYGGTGALILQKGEIRVINQTTCENLLPQLITPRMMCVGFLSGGVDSCTGDSGGPLSSVEADGRIFQAGVVSWGDGCAQRNKPGVYTRLPLFRDWIKENTGV
B19: MTSP-1 Q38R/I41S/D60bH/F60eV/ins97aE/F97T/T98G/F99L/C122S/G151N/Q175L/Q192E (enzyme)
chain: VVGGTDADEGEWPWQVSLHALGRGHSCGASLISPNWLVSAAHCYIDHRGVRYSDPTQWTAFLGLHDQSQRSAPGVQERRLKRIISHPFFNDTEGLDYDIALLELEKPAEYSSMVRPISLPDASHVFPAGKAIWVTGWGHTQYGGTNALILQKGEIRVINQTTCENLLPQLITPRMMCVGFLSGGVDSCEGDSGGPLSSVEADGRIFQAGVVSWGDGCAQRNKPGVYTRLPLFRDWIKENTGV
B20: MTSP-1 Q38R/I41S/D60bH/F60eV/F97T/ins97aE/T98G/F99L/C122S/Q175L/Q192E (enzyme)
chain: VVGGTDADEGEWPWQVSLHALGRGHSCGASLISPNWLVSAAHCYIDHRGVRYSDPTQWTAFLGLHDQSQRSAPGVQERRLKRIISHPFFNDTEGLDYDIALLELEKPAEYSSMVRPISLPDASHVFPAGKAIWVTGWGHTQYGGTGALILQKGEIRVINQTTCENLLPQLITPRMMCVGFLSGGVDSCEGDSGGPLSSVEADGRIFQAGVVSWGDGCAQRNKPGVYTRLPLFRDWIKENTGV

plasma purified human complement protein C3 (human), sequence (P01024 23-667, chain 1 of 2): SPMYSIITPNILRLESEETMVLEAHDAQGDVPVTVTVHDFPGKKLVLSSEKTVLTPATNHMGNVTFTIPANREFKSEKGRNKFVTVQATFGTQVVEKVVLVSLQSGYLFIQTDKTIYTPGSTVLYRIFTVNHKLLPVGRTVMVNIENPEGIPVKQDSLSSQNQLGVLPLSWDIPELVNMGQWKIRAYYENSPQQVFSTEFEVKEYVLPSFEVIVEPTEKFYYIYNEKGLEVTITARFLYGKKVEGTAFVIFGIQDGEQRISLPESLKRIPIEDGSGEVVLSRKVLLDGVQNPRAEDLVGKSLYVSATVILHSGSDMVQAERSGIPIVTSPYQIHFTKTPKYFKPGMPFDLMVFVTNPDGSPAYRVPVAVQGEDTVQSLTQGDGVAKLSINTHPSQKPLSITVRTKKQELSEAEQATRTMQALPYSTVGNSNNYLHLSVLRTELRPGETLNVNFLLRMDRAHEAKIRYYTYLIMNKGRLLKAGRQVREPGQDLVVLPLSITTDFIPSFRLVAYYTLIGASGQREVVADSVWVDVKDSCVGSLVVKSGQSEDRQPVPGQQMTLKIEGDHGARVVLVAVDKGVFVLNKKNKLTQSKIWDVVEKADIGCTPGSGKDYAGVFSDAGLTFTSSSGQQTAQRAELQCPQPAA
plasma purified human complement protein C3 (human), sequence (P01024 672-1663, chain 2 of 2): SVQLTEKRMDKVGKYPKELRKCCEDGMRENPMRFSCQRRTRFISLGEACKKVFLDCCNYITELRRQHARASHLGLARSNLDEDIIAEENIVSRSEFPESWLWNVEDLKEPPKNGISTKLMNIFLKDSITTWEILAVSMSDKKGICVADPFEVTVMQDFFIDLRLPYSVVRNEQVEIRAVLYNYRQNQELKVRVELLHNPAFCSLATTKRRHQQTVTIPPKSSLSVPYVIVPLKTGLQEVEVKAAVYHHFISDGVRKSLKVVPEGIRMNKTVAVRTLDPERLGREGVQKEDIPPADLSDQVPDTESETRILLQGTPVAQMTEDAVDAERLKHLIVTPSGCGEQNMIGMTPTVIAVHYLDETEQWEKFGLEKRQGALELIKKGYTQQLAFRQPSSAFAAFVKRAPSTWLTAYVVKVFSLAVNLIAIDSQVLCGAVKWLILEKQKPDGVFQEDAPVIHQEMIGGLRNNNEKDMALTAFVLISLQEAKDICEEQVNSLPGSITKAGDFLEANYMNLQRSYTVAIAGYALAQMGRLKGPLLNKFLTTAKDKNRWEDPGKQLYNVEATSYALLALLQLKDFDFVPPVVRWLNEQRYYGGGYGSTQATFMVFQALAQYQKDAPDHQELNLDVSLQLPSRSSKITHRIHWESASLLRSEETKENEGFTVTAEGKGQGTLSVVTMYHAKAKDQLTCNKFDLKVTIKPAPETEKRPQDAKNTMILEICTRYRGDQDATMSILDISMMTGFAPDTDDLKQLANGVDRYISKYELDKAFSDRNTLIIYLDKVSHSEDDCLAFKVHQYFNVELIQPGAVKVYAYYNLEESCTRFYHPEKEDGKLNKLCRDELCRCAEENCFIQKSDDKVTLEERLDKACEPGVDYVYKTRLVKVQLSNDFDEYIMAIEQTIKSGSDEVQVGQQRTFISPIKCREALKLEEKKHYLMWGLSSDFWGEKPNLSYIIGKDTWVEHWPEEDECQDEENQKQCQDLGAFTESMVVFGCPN

This assay has as its target plasma purified human complement protein C3 (human) (UniProt P01024). Description: cell-based or functional assay.
Molecule B1 registered an EC50 of hC3 cleavage of 30.9 nM.

Regarding B2, the EC50 of hC3 cleavage turned out to be 20.6 nM.

Molecule B3 registered an EC50 of hC3 cleavage of 9.42 nM.

In the case of B4, the EC50 of hC3 cleavage was determined as 28.1 nM.

As to B5, the EC50 of hC3 cleavage was 0.867 nM.

The molecule B6 displayed an EC50 of hC3 cleavage of 21.9 nM.

In turn, B7 yielded an EC50 of hC3 cleavage of 39.5 nM.

B8 displayed an EC50 of hC3 cleavage of 15.3 nM.

For the molecule B9, the EC50 of hC3 cleavage is 157 nM.

For B10, the EC50 of hC3 cleavage amounted to 65.8 nM.

Molecule B11 registered an EC50 of hC3 cleavage of 10.4 nM.

B12 gave an EC50 of hC3 cleavage of 187 nM.

As for B13, the EC50 of hC3 cleavage is 148 nM.

Molecule B14 gave an EC50 of hC3 cleavage of 158 nM.

The molecule B15 displayed an EC50 of hC3 cleavage of 27.3 nM.

In turn, B16 had an EC50 of hC3 cleavage of 232 nM.

As to B17, the EC50 of hC3 cleavage came out at 103 nM.

For the molecule B18, the EC50 of hC3 cleavage was 7.46 nM.

In the case of B19, the EC50 of hC3 cleavage worked out at 22.5 nM.

As for B20, the EC50 of hC3 cleavage turned out to be 35.2 nM.
